# Laboratory results: article PMC11812572 (2025)
# Experiments:
# [1] = target: T1, recombinant human cytoplasmic dynein 1 complex with mEGFP fused to its heavy chain, mEGFP-dynein (human, UniProt Q14204 1-4646; O43237-1 1-492; P63172 1-113; Q9NP97-1 1-96; P63167 1-89); experiment: apparent, from TIRF dynein activation (run frequency); with 14 nM dynactin and 100 nM Lis1
# [2] = target: T1, recombinant human cytoplasmic dynein 1 …; experiment: apparent, from TIRF dynein activation (run frequency); with 14 nM dynactin and 200 nM NuMA^N-term
Binder,Kd [1] [nM],Kd [2] [nM]
"AF546- or AF647-labelled SNAP-tagged human NuMA N-terminal fragment (first 705 aa), NuMA^N-term (domain or fragment, SNAP-tag labelled with SNAP-Surface Alexa Fluor 546 or SNAP-Surface Alexa Fluor 647) MTLHATRGAALLSWVNSLHVADPVEAVLQLQDCSIFIKIIDRIHGTEEGQQILKQPVSERLDFVCSFLQKNRKHPSSPECLVSAQKVLEGSELELAKMTMLLLYHSTMSSKSPRDWEQFEYKIQAELAVILKFVLDHEDGLNLNEDLENFLQKAPVPSTCSSTFPEELSPPSHQAKREIRFLELQKVASSSSGNNFLSGSPASPMGDILQTPQFQMRRLKKQLADERSNRDELELELAENRKLLTEKDAQIAMMQQRIDRLALLNEKQAASPLEPKELEELRDKNESLTMRLHETLKQCQDLKTEKSQMDRKINQLSEENGDLSFKLREFASHLQQLQDALNELTEEHSKATQEWLEKQAQLEKELSAALQDKKCLEEKNEILQGKLSQLEEHLSQLQDNPPQEKGEVLGDVLQLETLKQEAATLAANNTQLQARVEMLETERGQQEAKLLAERGHFEEEKQQLSSLITDLQSSISNLSQAKEELEQASQAHGARLTAQVASLTSELTTLNATIQQQDQELAGLKQQAKEKQAQLAQTLQQQEQASQGLRHQVEQLSSSLKQKEQQLKEVAEKQEATRQDHAQQLATAAEEREASLRERDAALKQLEALEKEKAAKLEILQQQLQVANEARDSAQTSVTQAQREKAELSRKVEELQACVETARQEQHEAQAQVAELELQLRSEQQKATEKERVAQEKDQLQEQLQ",51,–
"Lis1 (protein, full-length human Lis1; N-terminal His6-TEV tag (unlabelled construct) or mCherry fusion left out; homodimer by general knowledge, copy number not printed in the text given) MVLSQRQRDELNRAIADYLRSNGYEEAYSVFKKEAELDVNEELDKKYAGLLEKKWTSVIRLQKKVMELESKLNEAKEEFTSGGPLGQKRDPKEWIPRPPEKYALSGHRSPVTRVIFHPVFSVMVSASEDATIKVWDYETGDFERTLKGHTDSVQDISFDHSGKLLASCSADMTIKLWDFQGFECIRTMHGHDHNVSSVAIMPNGDHIVSASRDKTIKMWEVQTGYCVKTFTGHREWVRMVRPNQDGTLIASCSNDQTVRVWVVATKECKAELREHEHVVECISWAPESSYSSISEATGSETKKSGKPGPFLLSGSRDKTIKMWDVSTGMCLMTLVGHDNWVRGVLFHSGGKFILSCADDKTLRVWDYKNKRCMKTLNAHEHFVTSLDFHKTAPYVVTGSVDQTVKVWECR",–,148
